Consider eight molecules from US20130149248A1.

Read-outs that look alike come from different tables or passages of the source.

Assay [1] has as its target αvβ6 on VB6 cells (human) (UniProt P06756). Description: cell-based or functional assay.
Assay [2] concerns the target T1, recombinant soluble αvβ6, P06756.
T1 chain 1: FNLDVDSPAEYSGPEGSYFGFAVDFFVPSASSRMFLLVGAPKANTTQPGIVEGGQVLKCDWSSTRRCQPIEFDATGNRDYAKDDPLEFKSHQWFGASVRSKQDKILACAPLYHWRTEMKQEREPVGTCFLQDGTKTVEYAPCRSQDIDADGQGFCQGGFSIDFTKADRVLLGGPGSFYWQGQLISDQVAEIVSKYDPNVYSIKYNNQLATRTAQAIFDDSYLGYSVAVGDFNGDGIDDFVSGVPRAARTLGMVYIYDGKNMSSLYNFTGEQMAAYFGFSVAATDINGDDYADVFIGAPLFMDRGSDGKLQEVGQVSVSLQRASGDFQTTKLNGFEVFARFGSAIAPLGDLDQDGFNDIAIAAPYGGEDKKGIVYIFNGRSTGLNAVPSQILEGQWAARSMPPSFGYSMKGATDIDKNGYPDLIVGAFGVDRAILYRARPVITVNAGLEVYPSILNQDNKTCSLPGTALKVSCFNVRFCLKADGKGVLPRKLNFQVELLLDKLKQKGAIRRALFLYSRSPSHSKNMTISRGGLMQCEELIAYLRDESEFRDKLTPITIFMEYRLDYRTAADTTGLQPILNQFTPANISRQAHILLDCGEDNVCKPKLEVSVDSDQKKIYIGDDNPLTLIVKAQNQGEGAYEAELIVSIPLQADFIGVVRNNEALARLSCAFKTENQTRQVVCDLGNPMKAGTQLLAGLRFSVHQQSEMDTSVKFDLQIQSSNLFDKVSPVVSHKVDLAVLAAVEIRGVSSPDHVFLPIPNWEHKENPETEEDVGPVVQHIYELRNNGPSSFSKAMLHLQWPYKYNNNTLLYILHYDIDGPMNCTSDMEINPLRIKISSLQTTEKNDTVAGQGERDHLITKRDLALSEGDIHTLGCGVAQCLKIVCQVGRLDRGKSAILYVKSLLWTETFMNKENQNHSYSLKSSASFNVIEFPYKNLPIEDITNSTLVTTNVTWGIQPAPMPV
T1 chain 2: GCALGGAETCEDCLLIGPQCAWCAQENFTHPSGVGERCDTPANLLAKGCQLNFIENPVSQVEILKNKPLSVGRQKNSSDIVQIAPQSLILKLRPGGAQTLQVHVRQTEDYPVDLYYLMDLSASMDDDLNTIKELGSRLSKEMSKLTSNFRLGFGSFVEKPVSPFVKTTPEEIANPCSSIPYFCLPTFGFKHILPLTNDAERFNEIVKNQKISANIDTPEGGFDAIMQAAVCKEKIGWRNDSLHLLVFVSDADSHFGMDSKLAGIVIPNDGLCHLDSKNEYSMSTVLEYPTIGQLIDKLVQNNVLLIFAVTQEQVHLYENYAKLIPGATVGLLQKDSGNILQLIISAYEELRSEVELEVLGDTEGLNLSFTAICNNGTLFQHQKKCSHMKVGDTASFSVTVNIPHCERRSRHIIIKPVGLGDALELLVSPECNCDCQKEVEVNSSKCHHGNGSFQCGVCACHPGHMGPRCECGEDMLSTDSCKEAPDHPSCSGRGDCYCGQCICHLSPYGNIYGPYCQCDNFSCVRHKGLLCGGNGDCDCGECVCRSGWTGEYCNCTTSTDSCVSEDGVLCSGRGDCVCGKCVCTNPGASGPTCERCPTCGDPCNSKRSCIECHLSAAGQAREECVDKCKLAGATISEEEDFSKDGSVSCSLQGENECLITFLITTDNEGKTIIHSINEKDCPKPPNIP
Briefly: competitive sandwich ELISA; rsαvβ6 captured on anti-αv P2W7; competitor biotinylated fibronectin.

For assay [3] the target is unchanged. Description: competitive (Screening) ELISA; rsαvβ6 captured on anti-αv P2W7; competitor biotinylated fibronectin. For orientation: ELISA stands for enzyme-linked immunosorbent assay.
In assay [4] the target is T2, αvβ6 on 3T3β6.19 cells (mouse; human), P43406.
T2 chain 1: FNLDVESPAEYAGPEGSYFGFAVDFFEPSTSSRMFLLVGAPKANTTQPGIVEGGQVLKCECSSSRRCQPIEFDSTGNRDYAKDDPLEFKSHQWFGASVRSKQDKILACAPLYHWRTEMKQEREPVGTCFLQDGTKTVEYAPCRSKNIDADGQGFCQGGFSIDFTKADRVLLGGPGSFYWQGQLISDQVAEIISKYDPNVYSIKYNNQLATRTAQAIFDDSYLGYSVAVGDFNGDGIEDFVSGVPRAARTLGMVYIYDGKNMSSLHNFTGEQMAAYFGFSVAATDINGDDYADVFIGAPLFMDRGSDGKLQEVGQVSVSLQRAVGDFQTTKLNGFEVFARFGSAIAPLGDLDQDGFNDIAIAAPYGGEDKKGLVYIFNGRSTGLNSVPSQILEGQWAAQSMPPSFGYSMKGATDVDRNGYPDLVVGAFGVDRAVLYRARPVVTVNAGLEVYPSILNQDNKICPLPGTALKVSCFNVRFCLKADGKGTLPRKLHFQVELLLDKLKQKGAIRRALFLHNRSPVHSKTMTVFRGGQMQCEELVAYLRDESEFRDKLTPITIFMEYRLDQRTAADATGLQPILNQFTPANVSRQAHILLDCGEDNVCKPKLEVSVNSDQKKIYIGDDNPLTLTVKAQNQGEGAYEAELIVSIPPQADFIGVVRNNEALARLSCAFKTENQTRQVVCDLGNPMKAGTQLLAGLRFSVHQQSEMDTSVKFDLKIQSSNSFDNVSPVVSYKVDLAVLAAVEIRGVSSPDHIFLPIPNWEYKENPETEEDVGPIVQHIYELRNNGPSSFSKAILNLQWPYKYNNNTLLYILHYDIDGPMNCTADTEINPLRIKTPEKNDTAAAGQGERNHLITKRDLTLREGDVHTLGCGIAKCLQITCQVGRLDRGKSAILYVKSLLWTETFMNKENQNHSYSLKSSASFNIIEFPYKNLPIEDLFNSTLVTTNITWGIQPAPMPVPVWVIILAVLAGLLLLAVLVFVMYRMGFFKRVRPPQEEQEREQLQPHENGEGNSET
T2 chain 2: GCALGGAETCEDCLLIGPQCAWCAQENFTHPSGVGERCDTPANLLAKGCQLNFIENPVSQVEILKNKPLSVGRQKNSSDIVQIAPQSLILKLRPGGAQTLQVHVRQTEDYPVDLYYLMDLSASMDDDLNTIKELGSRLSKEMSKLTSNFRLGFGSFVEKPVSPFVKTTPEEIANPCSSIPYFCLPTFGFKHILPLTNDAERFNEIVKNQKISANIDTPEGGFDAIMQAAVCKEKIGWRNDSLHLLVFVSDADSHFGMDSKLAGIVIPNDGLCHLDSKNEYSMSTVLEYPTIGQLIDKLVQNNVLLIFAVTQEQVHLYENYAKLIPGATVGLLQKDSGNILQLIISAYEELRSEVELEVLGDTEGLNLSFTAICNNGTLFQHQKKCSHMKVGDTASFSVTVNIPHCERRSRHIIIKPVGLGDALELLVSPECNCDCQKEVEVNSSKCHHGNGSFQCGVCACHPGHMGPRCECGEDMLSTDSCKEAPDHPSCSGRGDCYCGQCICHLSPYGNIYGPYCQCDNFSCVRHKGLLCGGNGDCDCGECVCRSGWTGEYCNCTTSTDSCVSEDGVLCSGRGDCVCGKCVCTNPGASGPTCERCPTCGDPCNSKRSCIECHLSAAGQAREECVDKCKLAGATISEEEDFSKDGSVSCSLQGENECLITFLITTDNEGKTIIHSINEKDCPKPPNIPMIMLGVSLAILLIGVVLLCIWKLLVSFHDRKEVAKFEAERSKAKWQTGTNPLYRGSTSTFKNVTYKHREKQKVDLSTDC
Description: cell-based or functional assay.

Assay [5] has as its target T1, recombinant soluble αvβ6, P06756. Description: non-competitive binding ELISA; biotinylated peptide on immobilised rsαvβ6.
For assay [6] the target is unchanged.

For A20FMDV1 (peptide), the IC50, inhibition of adhesion of VB6 cells to LAP in assay [1] stood at 38200 nM.

B1: DD2 (peptide)
peptide: FTTGRRGDLATI
modifications: not checked
The IC50 is the concentration needed to halve the response being measured. Take B1: in assay [2], the IC50 was 30.9 nM.

B2: P_18INK (peptide)
peptide: SAAARGDLEQLTSLLQNNVN
modifications: not checked
In the case of B2, the IC50 in assay [3] turned out to be 23 nM.

B3: DD1 (peptide)
peptide: RRGDLATIH
modifications: not checked
Consider B3, for which, in assay [4], the IC50 of inhibition of αvβ6-dependent binding of 3T3β6.19 to LAP stood at 216000 nM and the adhesion of 3T3β6.19 to LAP in the presence of 20 µM peptide, % of control cell adhesion (% of control cell adhesion) was found to be 57.

B4: A20LAP (peptide)
peptide: GFTTGRRGDLATIHGMNRPF
modifications: not checked
Consider B4, for which the adhesion of 3T3β6.19 to LAP in the presence of 20 µM peptide, % of control cell adhesion (% of control cell adhesion) in assay [4] is 32.

B5: B-DBD2 (peptide)
peptide: CYVPNLRGDLQVLAQKVAKC
modifications: not checked
What is called EC50 is the concentration needed to bring the measured effect to its halfway point. On to B5, for which, in assay [5], the 50% effective concentration (EC50) was found to be 1.7 nM.

B6: DD3 (peptide)
peptide: TGRRGDLATI
modifications: not checked
Regarding B6, the adhesion of 3T3β6.19 to LAP in the presence of 20 µM peptide, % of control cell adhesion (% of control cell adhesion) in assay [4] came to 79. Besides, in assay [2], the IC50 stood at 22.6 nM.

B7: DD19 (peptide)
peptide: VPNLRGDLQVLA
modifications: not checked
In the case of B7, in assay [6], the half-inhibitory concentration (IC50) was 85 nM. In assay [4], this molecule displayed an IC50 of inhibition of αvβ6-dependent binding of cells to LAP of 190000 nM.
